Measurements from PMC5552852, “Structural basis for Ccd1 auto-inhibition in the Wnt pathway through homomerization of the DIX domain” (Scientific Reports, 2017).

B1: zebrafish Coiled-coil-DIX1 (zCcd1) DIX domain [zebrafish] / itself (parent)
chain: AAASTKVLYYTDRSLTPFLVNIPKRLGDVTLQDFKAAVDRHGSFRYHFKSLDPEFGTVKEEVFQDDAVIPGWEGKIVAWVEED

Variants of: B1
Test: gel filtration
Conditions: with itself; read off a plot
Work on chain 1 Y10F yielded a screen value of 80 mL.
